Values of other authors as cited in PMC5244385.

Molecular target: Fibrinogen (Homo sapiens) (UniProt P02671)
Sequence of UniProt P02671 (P02671 36-866, chain 1 of 3): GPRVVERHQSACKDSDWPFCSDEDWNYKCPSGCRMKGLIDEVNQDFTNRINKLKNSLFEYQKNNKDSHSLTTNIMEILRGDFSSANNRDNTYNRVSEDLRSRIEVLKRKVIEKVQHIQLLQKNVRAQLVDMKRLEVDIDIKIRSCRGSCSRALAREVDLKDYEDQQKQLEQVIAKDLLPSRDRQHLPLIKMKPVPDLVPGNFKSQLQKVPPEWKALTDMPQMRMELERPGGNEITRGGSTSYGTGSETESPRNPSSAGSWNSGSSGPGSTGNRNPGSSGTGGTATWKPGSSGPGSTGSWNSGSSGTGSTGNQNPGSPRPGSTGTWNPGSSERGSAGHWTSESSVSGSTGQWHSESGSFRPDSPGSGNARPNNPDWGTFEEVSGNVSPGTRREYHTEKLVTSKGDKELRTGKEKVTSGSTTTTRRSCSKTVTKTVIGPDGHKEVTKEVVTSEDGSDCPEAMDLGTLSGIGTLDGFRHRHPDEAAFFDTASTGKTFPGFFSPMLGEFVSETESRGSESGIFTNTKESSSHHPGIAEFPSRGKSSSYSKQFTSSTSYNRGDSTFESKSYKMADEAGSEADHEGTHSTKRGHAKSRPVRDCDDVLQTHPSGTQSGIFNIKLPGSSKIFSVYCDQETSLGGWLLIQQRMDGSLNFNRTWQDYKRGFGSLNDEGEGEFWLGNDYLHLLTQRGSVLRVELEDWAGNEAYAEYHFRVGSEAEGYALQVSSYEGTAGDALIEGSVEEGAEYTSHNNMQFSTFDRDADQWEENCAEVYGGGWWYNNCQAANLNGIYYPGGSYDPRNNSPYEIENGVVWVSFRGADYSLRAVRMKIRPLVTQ
Sequence of UniProt P02671 (P02675 45-491, chain 2 of 3, further chain): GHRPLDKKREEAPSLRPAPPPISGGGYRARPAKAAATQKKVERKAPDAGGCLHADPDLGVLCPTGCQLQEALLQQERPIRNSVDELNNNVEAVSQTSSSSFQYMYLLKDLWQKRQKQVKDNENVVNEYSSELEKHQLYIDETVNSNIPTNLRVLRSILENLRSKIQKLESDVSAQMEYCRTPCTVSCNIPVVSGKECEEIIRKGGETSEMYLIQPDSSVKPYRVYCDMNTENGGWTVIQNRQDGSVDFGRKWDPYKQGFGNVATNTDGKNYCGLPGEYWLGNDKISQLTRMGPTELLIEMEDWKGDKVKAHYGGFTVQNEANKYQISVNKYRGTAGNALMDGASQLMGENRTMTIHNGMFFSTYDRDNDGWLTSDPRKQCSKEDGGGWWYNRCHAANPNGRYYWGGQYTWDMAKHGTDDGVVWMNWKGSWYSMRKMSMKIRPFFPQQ
Sequence of UniProt P02671 (P02679 27-453, chain 3 of 3, further chain): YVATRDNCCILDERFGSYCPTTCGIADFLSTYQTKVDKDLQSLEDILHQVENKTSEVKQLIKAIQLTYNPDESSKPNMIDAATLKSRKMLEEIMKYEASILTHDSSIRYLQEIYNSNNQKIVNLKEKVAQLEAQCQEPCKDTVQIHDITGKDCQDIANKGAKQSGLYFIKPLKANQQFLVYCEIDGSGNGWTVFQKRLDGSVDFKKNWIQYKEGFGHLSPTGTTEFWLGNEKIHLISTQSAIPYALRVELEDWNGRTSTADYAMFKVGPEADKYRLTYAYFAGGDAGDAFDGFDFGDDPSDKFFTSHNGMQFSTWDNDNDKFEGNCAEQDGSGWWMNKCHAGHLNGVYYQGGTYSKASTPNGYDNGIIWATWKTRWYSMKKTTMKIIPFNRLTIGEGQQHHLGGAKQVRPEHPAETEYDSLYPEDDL

In the case of Clumping factor A (from UniProt Q53653), the Kd is listed as 510 nM.
